Changes are numbered by the printed parent chain. Values belong to the binder of their own block, whether it stands above or below them.
Target: Human 20.2 + 18mer
Test: ELISA, well supernatant on coated peptides

ELISA reading: 0.4
B1: antibody in the supernatant of B cell culture well 250F2 (antibody, V domains shown)
VH: QVQLVESGGDLVKPGGSLRLSCAASGFSFSGYYLSWIRQAPGKGLEWVSYISLSGSFIKYADSVKGRFTISRDNAKKTLHLQMNSLRAEDTAVYYCARRTGTTTVFDYWGQGTLVTVSS
VL: EVVMTQSPATLSVSPGERATLSCRASQSVNSNLAWYQQRPGQAPRLLIYGASTRVTGIPARFSGSGSGTEFTLTISSLQSEDFAVYYCQQYNNWPLTFGGGTKVEIK

ELISA reading: 0.5
B2: antibody in the supernatant of B cell culture well 283B2 (antibody, V domains shown)
VH: QVQLVESGGGLVKPGGSLRLSCAASGFTFNVYYMNWIRQAPGKGLEWVSYISTSSSAIYYADSVKGRFTISRDNAKNSLYLQMNSLRAEDTAVYYCARRTGSTTVFDYWGQGTLVTVSS
VL: B1 VL with V2I, M4L, V29I, S31N, R39K, V55A, R61K, D82N, N93K

ELISA reading: 1.7
B3: antibody in the supernatant of B cell culture well 170B8 (antibody, V domains shown)
VH: AVQLLESGGGLIQPGGSLRLSCAASGFTFSSYAMSWVRQAPGKGLEWVSAISGSGGSTFYADSVRGRFTISRDNSKNTLYLQMNSLRVEDTAVYYCAKEVMGPIFFDYWGQGTLVTVSS
VL: EIVLTQSPGTLSLSPGERATLSCRASQSIISSALAWYQQKPGQAPRLLIYGASSRATGIPDRFSGSGSGTDFTLTISRLEPEDFAVYHCQQYGSTPLTFGGGTKVEIK

— patent US20030232009A1
